Laboratory results reported in the RNAGym collection of RNA variant scans (doi:10.7554/elife.80360).

B1: Hairpin Ribozyme (parent)
chain: GUCCUCUUUCACGUGCGCGUGAAAGAGAGAAGUGAACCAGAGAAACACACGUUGUGGUAUAUUACCUGGUA

Variants of: B1
Assay: self-cleavage, relative activity (ratio to wild type); higher = more cleavage; co-transcriptional

| Variant | self-cleavage |
| --- | --- |
| G68A U70C | 0.336 |
| A64U G68C | 0.213 |
| U58C G69C | 0.259 |
| U58C G69A | 0.421 |
| C66G U67C | 0.219 |
| U58G C66U | 0.403 |
| U58G C66A | 0.281 |
| U63A G69A | 0.153 |
| U70G A71G | 1.82 |
| C66A U70G | 0.176 |
| C66A U70C | 0.305 |
| A61G A64C | 0.109 |
| A71U | 0.796 |
| A71C | 1.42 |
| A71G | 1.04 |
| C66A A71C | 0.445 |
| C66A A71U | 0.184 |
| U62A U67G | 0.173 |
| C65U U67A | 0.309 |
| A64U C66G | 0.069 |
| A64U C66A | 0.156 |
| A64C U67G | 0.147 |
| A59C U63A | 0.169 |

| Variant | self-cleavage |
| --- | --- |
| U62C G69A | 0.112 |
| U63G U70C | 0.161 |
| U63G U70G | 0.182 |
| C66U A71U | 0.417 |
| C66U A71G | 0.484 |
| A61C U63A | 0.177 |
| U60A A61U | 0.17 |
| U60A A61C | 0.133 |
| A64C G68C | 0.273 |
| C66G G69C | 0.145 |
| C66G G69U | 0.0961 |
| G69C U70G | 0.657 |
| C65U G68A | 0.249 |
| U63A A64G | 0.0955 |
| U62C U63A | 0.21 |
| U62C U63C | 0.168 |
| U60C U70C | 1.28 |
| U60C U70G | 1.03 |
| U67C A71C | 0.359 |
| U67C A71G | 0.132 |
| A64G C66G | 0.226 |
| A64C A71G | 0.266 |
| A59U G69U | 0.191 |

| Variant | self-cleavage |
| --- | --- |
| A59U G69A | 0.182 |
| A59U G69C | 0.323 |
| A61G U62G | 0.128 |
| C66G U70A | 0.273 |
| C66G U70C | 0.132 |
| C66G U70G | 0.2 |
| A64U U70A | 0.257 |
| U62G C66G | 0.0965 |
| U60C C65G | 0.531 |
| U60C C65U | 0.909 |
| A64G U70A | 0.597 |
| A64G U70G | 0.47 |
| U58A U63C | 0.307 |
| U58A U63G | 0.194 |
| U63G C66A | 0.119 |
| U63G C66U | 0.109 |
| U58C U63C | 0.178 |
| U67A G69U | 0.321 |
| U58C U67G | 0.241 |
| A59C U70A | 0.112 |
| C66A U67C | 0.159 |
| C65A U70A | 0.686 |
| U62G C65U | 0.0799 |

| Variant | self-cleavage |
| --- | --- |
| A61C U62C | 0.166 |
| A61G G68C | 0.195 |
| A59C U62A | 0.159 |
| U60G U67G | 0.202 |
| U62A C65U | 0.204 |
| U62A C65A | 0.165 |
| U67G | 0.28 |
| U67C | 0.227 |
| U67A | 0.229 |
| U63C A64C | 0.224 |
| G68A G69C | 0.19 |
| G68A G69A | 0.103 |
| A61G U70G | 0.156 |
| G69C A71U | 0.57 |
| A64C C66U | 0.27 |
| A64C C66A | 0.0503 |
| A64C C66G | 0.084 |
| A61U U70C | 0.231 |
| A61U U70G | 0.261 |
| U58A U62A | 0.0926 |
| C65G U70C | 0.189 |
| C65G U70G | 0.19 |
| U58C A59U | 0.192 |

| Variant | self-cleavage |
| --- | --- |
| U60G U63C | 0.171 |
| U67G U70C | 0.588 |
| U67G U70A | 0.214 |
| U67G U70G | 0.125 |
| U58G A71C | 1.07 |
| U58G A71U | 0.455 |
| U58G A71G | 0.935 |
| U58C U70C | 0.945 |
| C66G G68C | 0.0397 |
| C66G G68U | 0.0439 |
| A59G C65A | 0.155 |
| A59G C65G | 0.247 |
| A64U | 0.181 |
| A64C | 0.174 |
| A64G | 0.544 |
| U58C | 0.994 |
| U58G | 0.788 |
| A59U A64U | 0.191 |
| U63G G69C | 0.138 |
| A59C U67G | 0.24 |
| U60G C66G | 0.261 |
| U60G U62C | 0.244 |
| U60G U62G | 0.222 |

| Variant | self-cleavage |
| --- | --- |
| A64G G68C | 0.122 |
| A64G G68U | 0.19 |
| A59C G69C | 0.216 |
| U63C U70G | 0.248 |
| G68U U70A | 0.269 |
| G68U U70C | 0.201 |
| G68C U70G | 0.576 |
| A61C G68A | 0.116 |
| A61C G68U | 0.278 |
| A59G U63C | 0.134 |
| A64U G69A | 0.115 |
| G68C G69C | 0.206 |
| G68C G69A | 0.152 |
| U58C U62A | 0.24 |
| A59C A61U | 0.284 |
| U58G U60A | 0.714 |
| U58G U60G | 0.731 |
| U60C G69U | 0.0645 |
| A64U A71U | 0.305 |
| U62C C65A | 0.212 |
| U62C C65U | 0.162 |
| U58G A59G | 0.143 |
| A61G C66G | 0.329 |
